Common to all, as to type: cell-based, human
The test system of assay [1] is H460 cells. In words: PD-L1 western blot after modulators (EM and MTAs). As to conditions: NSCLC H460, 30 minutes, 3 hours, 24 hours. The text has this: (§1) Cell lines were acquired from ATCC, Sigma, or DSMZ. Human non-small cell lung carcinoma (NSCLC) cell lines H292 (ATCC no. CRL-1848.), H1299 (ATCC no. CRL-5803), H520 (ATCC no. CRL-5811), CALU6 (ATCC no. HTB-56), H1975 (ATCC no. CRL-5908), H460 (ATCC no. HTB-177), H2126 (ATCC no. CCL-256), H1650 (ATCC no. CRL-5883), and H2087 (ATCC no. CRL-5922) were used for this experiment along with head and neck squamous cell carcinoma (HNSCC) cell lines BHY (DSMZ ACC 404), CAL27 (ATCC no. CRL-2095), KYSE410 (Sigma), and A253 (ATCC no. HTB-41), melanoma cell lines A375 (ATCC no. CRL-1619), COL0853 (Sigma), and MM127 (Sigma) pancreatic cancer cell lines BXPC3 (ATCC no. CRL-1687), colorectal cancer cell lines […], HCT116 (ATCC no. CCL-247EMT), and breast cancer cell lines BT549 (ATCC no. HTB-122), BT20 (ATCC no. HTB-19), and T47D (ATCC no. HTB-133). Cells were maintained in manufacturer-recommended conditions at 37° C. inside humidified 5% CO2 incubators. Sub-cultivation and harvesting for all cell lines were performed using Accutase (GIBCO Life Technologies; cat. no. A1110501) at 37° C. for 10 minutes. Cell viability was measured using trypan blue exclusion staining in conjunction with the Countess II Automated Cell Counter (Thermo Fischer Scientific; cat. no. AMQAX1000). Measurements were made in duplicate and the average number of viable cells was recorded prior to experiments.
(§2) T7039), and IL-10 (50 ng/ml; Sigma Aldrich cat. no. SRP3071) were administered to cell lines for various times including 30 minutes, 3 hour, and 24 hour time intervals prior to cell lysis and protein extraction.
(§3) To determine the effects of the aforementioned molecules on the modulation of PD-L1, we selected various NSCLC, HNSCC, breast cancer, melanoma, colorectal cancer, and pancreatic cancer cell lines as examples. Other diseases or cell lines could be used readily as could more complex samples such as cells isolated from xenografts and clinical samples. Cells were plated, for three different time points (30 minutes, 3 hours, and 24 hours), inside 6-well petri dishes with 2 mL of appropriate medium. Plates were incubated for 24 hours in 5% CO2 incubators at 37° C. After 24 hours, each 6-well plate was washed with PBS (Gibco Life Technologies, cat. no. 10010023) followed by fresh media being added along with each cell line's vehicle control or appropriate modulator for each specific time point, and were placed in CO2 incubators until their modulation time point was reached. Other conditions can be readily used, such as processing on automated systems such as SnapPath. At the end of each time point, while keeping plates on ice, cell lysis was conducted by aspirating culture medium from each plate, washing of each plate three times with 5 ml of cold PBS (Gibco Life Technologies, cat. no. 10010023) and culminated with the addition of cold 1× lysis buffer containing (Cell Signaling, cat. no. 9803 S) protease inhibitor cocktail (Cell Signaling, cat. no. 5871S), phosphatase inhibitor cocktail (Cell Signaling, cat. no. 5870S), and PMSF (Fisher Scientific, cat. no. ICN19538101). Plates were then placed on ice for ten minutes, swirling each plate intermittently. Aliquots of protein lysates were prepared and then stored at −80° C. until protein quantification and Western blot analysis was to be conducted. The protein concentration of each lysate was analyzed by using the Pierce 660 Protein Assay Reagent (Thermo Fisher Scientific, cat. no. 22660) and testing of each sample was conducted in duplicate. Two μg of protein was then loaded per lane into 10% Midi-PROTEAN TGX Precast Gels (Bio Rad, cat. no. 5671034) along with Kaleidoscope Prestained Protein Standard (BioRad, cat. no. 1610375) which ran at 220V for 45 minutes. Proteins were transferred to mini-PVDF membranes (BioRad, cat. no. 1704156) in 3 minutes using the Trans-Blot Turbo Transfer System (BioRad, cat. no. 1704150EDU).

The subject of assay [2] is BT549 cells. Kind of assay: PD-L1 western blot after modulators (EM and MTAs). The following applies: Breast BT549, 30 minutes, 3 hours, 24 hours.
Text: as §1, §2, §3
Background: Immunoblotting shows a protein as a band on a membrane.

For assay [3], the system named is H1650 cells. In words: PD-L1 western blot after modulators (EM and MTAs). The following applies: NSCLC H1650, 30 minutes, 3 hours, 24 hours.
Text: as §1, §2, §3

Assay [4] concerns H292 cells. In words: PD-L1 western blot after modulators (EM and MTAs). The following applies: NSCLC H292, 30 minutes, 3 hours, 24 hours.
Text: as §1, §2, §3

Assay [5] concerns various NSCLC, HNSCC, breast cancer, melanoma, colorectal cancer, and pancreatic cancer cell lines. Kind of assay: PD-L1 western blot after modulators, summary over all samples. The following applies: depending on the sample, summary of Table 3.
Text: as §1, §2, §3

B1: IFNγ: human IFNγ, modulator (10 ng/ml; Sigma Aldrich) (protein, UniProt P01579 24-161, looked up)
Interferon gamma: QDPYVKEAENLKKYFNAGHSDVADNGTLFLGILKNWKEESDRKIMQSQIVSFYFKLFKNFKDDQSIQKSVETIKEDMNVKFFNSNKKKRDDFEKLTNYSVTDLNVQRKAIHELIQVMAELSPAAKTGKRKRSQMLFRG
As for B1, the “PD-L1 Response” value in assay [1], in assay [2], in assay [3] and in assay [4] was “Up” in each case. Besides, the “regulation of PD-L1 across samples” value in assay [5] is “only led to upregulation”.
